Results from paper PMC5897774, “Mitotic spindle association of TACC3 requires Aurora‐A‐dependent stabilization of a cryptic α‐helix” (The EMBO Journal, 2018).
Like-named read-outs stand apart in the source and are kept apart here. Non-standard residues stand in square brackets, D forms with d. No end group written: not given here. pS = N[C@@H](COP(=O)(O)O)C(=O)O; FAM = fluorescein label

T1: Aurora‐A R151A (Homo sapiens, UniProt O14965, C290A/C393A/R151A)
T1 construct: pET30TEV Aurora‐A 122–403 C290A, C393A were produced in a similar manner; made in house
T1 sequence (O14965 122-403 R151A/C290A/C393A): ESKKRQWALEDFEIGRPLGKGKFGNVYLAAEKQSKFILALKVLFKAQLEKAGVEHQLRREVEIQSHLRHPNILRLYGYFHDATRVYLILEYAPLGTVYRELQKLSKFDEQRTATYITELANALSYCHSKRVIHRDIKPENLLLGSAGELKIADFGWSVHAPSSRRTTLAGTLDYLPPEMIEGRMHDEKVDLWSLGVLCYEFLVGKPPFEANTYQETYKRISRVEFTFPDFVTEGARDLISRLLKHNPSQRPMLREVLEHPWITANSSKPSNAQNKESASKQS

T2: Aurora‐A (Homo sapiens, UniProt O14965, C290A/C393A)
T2 construct: pET30TEV Aurora‐A 122–403 C290A, C393A; made in house
T2 sequence (O14965 122-403 C290A/C393A): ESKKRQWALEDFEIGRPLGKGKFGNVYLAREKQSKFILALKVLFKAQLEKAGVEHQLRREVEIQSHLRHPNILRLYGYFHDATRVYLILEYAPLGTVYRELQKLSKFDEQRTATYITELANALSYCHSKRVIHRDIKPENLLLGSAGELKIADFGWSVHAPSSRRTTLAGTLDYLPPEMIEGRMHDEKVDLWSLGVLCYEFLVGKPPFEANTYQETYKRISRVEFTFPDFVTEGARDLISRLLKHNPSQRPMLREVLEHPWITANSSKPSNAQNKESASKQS

T3: CHC 1–574 L503A/Y504A (UniProt Q00610 1-574, L503A | Y504A)
T3 construct: source: expressed and purified as the WT protein (modified pGEX vector; GST cleaved with TEV)
T3 sequence (looked up): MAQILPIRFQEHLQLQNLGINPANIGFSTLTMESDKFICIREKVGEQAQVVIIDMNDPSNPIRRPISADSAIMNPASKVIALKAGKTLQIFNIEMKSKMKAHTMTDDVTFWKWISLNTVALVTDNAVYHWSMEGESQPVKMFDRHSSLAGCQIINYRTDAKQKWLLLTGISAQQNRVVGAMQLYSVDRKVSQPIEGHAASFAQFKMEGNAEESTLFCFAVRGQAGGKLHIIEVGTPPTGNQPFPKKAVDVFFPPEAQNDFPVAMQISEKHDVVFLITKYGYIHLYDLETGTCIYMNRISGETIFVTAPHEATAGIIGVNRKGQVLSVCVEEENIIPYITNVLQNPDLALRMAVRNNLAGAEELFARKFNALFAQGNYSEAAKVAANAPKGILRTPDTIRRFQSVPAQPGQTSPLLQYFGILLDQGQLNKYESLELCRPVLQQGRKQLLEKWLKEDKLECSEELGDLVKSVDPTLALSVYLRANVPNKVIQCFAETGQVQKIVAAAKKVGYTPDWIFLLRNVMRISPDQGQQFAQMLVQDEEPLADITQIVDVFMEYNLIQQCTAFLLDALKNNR

T4: CHC 1–574 L476D, L480D (UniProt Q00610 1-574, L476D | L480D)
T4 construct: source: expressed and purified as the WT protein (modified pGEX vector; GST cleaved with TEV)
T4 sequence (looked up): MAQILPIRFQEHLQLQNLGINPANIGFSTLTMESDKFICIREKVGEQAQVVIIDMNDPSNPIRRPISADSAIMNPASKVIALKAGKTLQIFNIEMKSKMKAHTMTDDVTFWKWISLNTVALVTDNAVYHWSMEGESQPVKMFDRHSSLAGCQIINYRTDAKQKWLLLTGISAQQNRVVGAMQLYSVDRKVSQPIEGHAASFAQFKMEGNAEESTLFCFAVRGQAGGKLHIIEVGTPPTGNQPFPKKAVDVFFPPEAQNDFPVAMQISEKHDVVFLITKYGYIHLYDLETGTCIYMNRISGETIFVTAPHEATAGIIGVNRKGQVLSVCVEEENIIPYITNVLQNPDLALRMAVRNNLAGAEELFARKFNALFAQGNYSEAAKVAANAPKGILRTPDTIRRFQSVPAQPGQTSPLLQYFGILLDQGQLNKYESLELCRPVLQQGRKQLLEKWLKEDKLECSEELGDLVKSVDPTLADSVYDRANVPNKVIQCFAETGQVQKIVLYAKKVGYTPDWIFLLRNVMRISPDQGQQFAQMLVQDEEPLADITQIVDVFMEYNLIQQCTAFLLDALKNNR

T5: CHC 1–574 L480D (UniProt Q00610 1-574, L480D)
T5 construct: source: expressed and purified as the WT protein (modified pGEX vector; GST cleaved with TEV)
T5 sequence (looked up): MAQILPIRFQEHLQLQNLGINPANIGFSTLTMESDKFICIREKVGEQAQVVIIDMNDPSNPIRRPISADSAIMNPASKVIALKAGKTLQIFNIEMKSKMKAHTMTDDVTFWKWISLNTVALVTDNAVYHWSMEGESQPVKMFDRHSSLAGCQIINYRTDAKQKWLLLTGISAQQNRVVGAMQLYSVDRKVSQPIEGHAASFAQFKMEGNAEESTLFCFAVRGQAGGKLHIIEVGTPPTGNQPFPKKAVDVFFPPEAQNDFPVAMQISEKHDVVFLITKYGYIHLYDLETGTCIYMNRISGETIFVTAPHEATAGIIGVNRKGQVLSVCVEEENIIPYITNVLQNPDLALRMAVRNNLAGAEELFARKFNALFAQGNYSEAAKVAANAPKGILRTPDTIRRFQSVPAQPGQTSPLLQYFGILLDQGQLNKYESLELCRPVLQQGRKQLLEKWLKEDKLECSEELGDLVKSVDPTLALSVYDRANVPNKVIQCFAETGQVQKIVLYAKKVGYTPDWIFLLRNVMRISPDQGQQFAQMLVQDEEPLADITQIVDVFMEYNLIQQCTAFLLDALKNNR

T6: CHC 1–574 R481E (UniProt Q00610 1-574, R481E)
T6 construct: source: expressed and purified as the WT protein (modified pGEX vector; GST cleaved with TEV)
T6 sequence (looked up): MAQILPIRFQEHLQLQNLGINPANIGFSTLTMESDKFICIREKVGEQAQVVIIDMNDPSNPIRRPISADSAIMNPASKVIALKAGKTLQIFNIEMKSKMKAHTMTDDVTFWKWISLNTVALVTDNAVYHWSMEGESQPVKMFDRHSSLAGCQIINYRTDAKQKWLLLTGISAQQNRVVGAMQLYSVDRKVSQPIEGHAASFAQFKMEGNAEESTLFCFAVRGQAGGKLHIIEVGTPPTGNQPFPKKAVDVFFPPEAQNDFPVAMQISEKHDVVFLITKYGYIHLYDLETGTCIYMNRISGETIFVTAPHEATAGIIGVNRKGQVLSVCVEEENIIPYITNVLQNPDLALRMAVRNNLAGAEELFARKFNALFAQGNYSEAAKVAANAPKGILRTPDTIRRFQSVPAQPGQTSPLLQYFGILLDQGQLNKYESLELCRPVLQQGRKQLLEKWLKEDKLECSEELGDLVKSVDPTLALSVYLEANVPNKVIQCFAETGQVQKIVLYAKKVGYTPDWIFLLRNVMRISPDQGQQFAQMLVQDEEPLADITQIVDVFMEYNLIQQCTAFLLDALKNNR


Experiments:
[1] = tested on: unphosphorylated Aurora‐A KD; assay: Autophosphorylation assay of unphosphorylated Aurora‐A KD (Western blot αphospho‐T288); assay type: biochemical, human; settings: unphosphorylated Aurora‐A 122–403, 1 h, room temperature
Excerpt: (§1) Figure 2 TACC3 523–534 forms a docking interaction on the N‐lobe of Aurora‐A • Magnified view of the site 1 interaction. • Schematic showing the key features of the TACC3/Aurora‐A interface. • FP assays of binding between site 1 of TACC3 and Aurora‐A. The sequence of TACC3 present in the complex crystal structure is shown (top) with the residues of the site 1 FP peptide coloured orange and mutated residues identified by coloured circles corresponding to the curves shown in the FP assay (below). Data represent mean of three experiments ± SD. […] Data represent mean of three experiments ± SD. […] Reactions were analysed by SDS–PAGE (above) and Western blotting with an αphospho‐T288 Aurora‐A antibody (below). […] They are listed as printed.
(§2) Autophosphorylation assays were performed as for radioactive ^32P‐ATP reactions using Aurora‐A 122–403 co‐expressed with lambda phosphatase for 1 h at room temperature with His‐Aurora‐A D274N as a substrate in replace of MBP. Reactions were resolved by SDS–PAGE and subject to Western blotting using an α‐phospho‐T288 Aurora‐A antibody (CST 2914, 1:2,000) as per the manufacturer's recommendation.

[2] = biological target: T1, Aurora‐A R151A; assay: Radioactive 32P‐ATP kinase assay, MBP substrate, Aurora‐A R151A; assay type: biochemical; settings: 0.625 μM Aurora‐A R151A, 5 μM TACC3^N‐ACID, 0.25 mg/ml MBP, 10 min, scintillation counting, duplicate
Description: Figure EV2 Biochemical and structural analysis of the Aurora‐A/TACC3 complex • FP assay between FAM‐TACC3 519–570 and Aurora‐A. Reactions were performed in triplicate. Error bars represent standard deviation. […] Error bars represent standard deviation. […] This peptide was based on the location of a sulphate ion, originating from the crystallization solution, at the interface of the Aurora‐A/TACC3 interface in the crystal structure, close to TACC3 T534. […] Myelin basic protein (MBP) was used as a generic kinase substrate. Incorporation of radioisotope was measured by scintillation counting. Reactions were performed in duplicate. Error bars represent standard error. Assays were compared to the WT TACC3^N‐ACIDH6c reaction by one‐way ANOVA with Dunnett's post hoc test. *P < 0.1, **P < 0.01 and ****P < 0.0001. • Multiple sequence alignment of TACC3 (above) and Aurora‐A (below) orthologs spanning the interaction binding interface. Key binding residues are boxed in red. The TACC3 phosphorylation sites, S552 and S558, are boxed in blue. The TACC3 LL motif required for binding to CHC is boxed in green. […]
Radioactive ^32P‐ATP kinase assays were performed as described previously (Burgess et al, 2015). […] Samples were spotted onto P81 Whatman paper, washed extensively with 0.2% (v/v) orthophosphoric acid and incorporation of radioisotope measured by scintillation counting.

[3] = biological target: T2, Aurora‐A; design: method as in Burgess et al, 2015; settings: ref Burgess et al, 2015, cited from earlier work
[4] = tested on: Aurora‐A KD (substrate: Aurora‐A D274N); assay: Substrate phosphorylation of kinase‐dead Aurora‐A D274N by Aurora‐A KD (Western blot αphospho‐T288); assay type: biochemical, human; settings: Aurora‐A D274N as substrate, 1 h, room temperature
Excerpt: as §1, §2

[5] = biological target: T2, Aurora‐A; assay: Radioactive 32P‐ATP kinase assay, MBP substrate; assay type: biochemical; settings: 0.625 μM phosphorylated Aurora‐A, 5 μM TACC3^N‐ACID, 0.25 mg/ml MBP, 10 min, scintillation counting, duplicate
Description: Figure EV2 Biochemical and structural analysis of the Aurora‐A/TACC3 complex • FP assay between FAM‐TACC3 519–570 and Aurora‐A. Reactions were performed in triplicate. Error bars represent standard deviation. […] Error bars represent standard deviation. […] This peptide was based on the location of a sulphate ion, originating from the crystallization solution, at the interface of the Aurora‐A/TACC3 interface in the crystal structure, close to TACC3 T534. […] Myelin basic protein (MBP) was used as a generic kinase substrate. Incorporation of radioisotope was measured by scintillation counting. Reactions were performed in duplicate. Error bars represent standard error. Assays were compared to the WT TACC3^N‐ACIDH6c reaction by one‐way ANOVA with Dunnett's post hoc test. […], **P < 0.01 and ****P < 0.0001. • Multiple sequence alignment of TACC3 (above) and Aurora‐A (below) orthologs spanning the interaction binding interface. Key binding residues are boxed in red. The TACC3 phosphorylation sites, S552 and S558, are boxed in blue. The TACC3 LL motif required for binding to CHC is boxed in green. The TACC3 α‐helix produced on binding to CHC is identified by a black line. TEXT PRINTED IN THE PICTURE: (A) TACC3 519-570: 3.0 ± 0.2 μM | (B) WT: 20 ± 1 μM | (B) R526A: 49 ± 2 μM | (B) phospho-T534: 14 ± 1 μM
Radioactive ^32P‐ATP kinase assays were performed as described previously (Burgess et al, 2015). In brief, 0.625 μM Aurora‐A^M3KD WT or selected mutant was incubated with 0.25 mg/ml MBP alone and in the presence of 5 μM TACC3^N‐ACID WT or mutant for 10 min. Reactions were terminated by the addition of 2% (v/v) orthophosphoric acid. Samples were spotted onto P81 Whatman paper, washed extensively with 0.2% (v/v) orthophosphoric acid and incorporation of radioisotope measured by scintillation counting.

[6] = biological target: T3, CHC 1–574 L503A/Y504A; assay: fluorescence polarisation; CHC proteins serially diluted in 20 mM HEPES–NaOH pH 7.5, 200 mM NaCl, 5 mM DTT; 50 nM FAM‐labelled TACC3 peptide; 30 min at room temperature; read at 25°C; settings: both partners purified
[7] = biological target: T4, CHC 1–574 L476D, L480D; assay: as above; settings: both partners purified
[8] = biological target: T5, CHC 1–574 L480D; assay: as above; settings: both partners purified
[9] = biological target: T6, CHC 1–574 R481E; assay: as above; settings: both partners purified

stimulation of Aurora‐A R151A activity by TACC3 [2] | stimulation of Aurora‐A activity [5] | Kd [6] | Kd [7] | Kd [8] | Kd [9] | Molecule | Aurora‐A autophosphorylation on T288 [1] | Kd ([3]; microscale thermophoresis and NMR, read-out: K d measured by MST and NMR) | Kd ([3]; previous data, effect of F525A mutation, read-out: K d of the interaction) | substrate phosphorylation on T288 (Aurora‐A D274N) [4]
reduced stimulation | eightfold |  |  |  |  | TACC3^N‐ACID: N-terminal fragment of the Aurora-A and CHC interaction domain of TACC3, aa519–563 (ELKEESFRDPAEVLGTGAEVDYLEQFGTSSFKESALRKQSLYLKF; not fully specified) | stimulated | 6 to 8 µM | 5.7 µM | stimulated
 |  | > 300 µM | > 300 µM | > 300 µM | > 300 µM | {FAM}-FKESALRKQ[pS]LYLKFDPLLRDS (peptide, UniProt Q9Y6A5 549-570, looked up, TACC3, human, aa549–570 (TACC3^CID); also called pTACC3^CID; FAM‐labelled pTACC3^CID; source: FAM‐labelled peptide (FAM‐TACC3 peptides: PPR, Cambridge; Almac, Craigavon)) [FAM‐TACC3 549–570 phosphorylated on S558 (FAM‐phospho‐TACC3^CID)] |  |  |  | 
